Results taken from paper PMC8945367, “Transcription Regulation of Tceal7 by the Triple Complex of Mef2c, Creb1 and Myod” (Biology, 2022).

Target: 3×HA-Creb1 (UniProt Q01147-2 1-327)
Assay: cell-based or functional assay

Sequence of 3×HA-Creb1 (Q01147 whole entry): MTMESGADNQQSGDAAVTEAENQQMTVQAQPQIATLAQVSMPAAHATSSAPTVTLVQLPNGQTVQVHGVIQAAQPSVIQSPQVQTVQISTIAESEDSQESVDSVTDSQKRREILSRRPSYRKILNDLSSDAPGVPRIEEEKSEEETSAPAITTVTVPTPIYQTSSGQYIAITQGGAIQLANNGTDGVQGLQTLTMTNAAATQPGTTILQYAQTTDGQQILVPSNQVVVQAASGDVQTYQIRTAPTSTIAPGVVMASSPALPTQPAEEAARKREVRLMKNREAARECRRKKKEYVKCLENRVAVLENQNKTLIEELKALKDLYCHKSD

transactivation of Reporter II (4×(Mef2#3–CRE#3–E#4) luciferase) by Mef2c and Creb1 together in HEK293T cells; 2.8-fold by Mef2c and 3.7-fold by Creb1 alone: 8.3 fold
B1: 6×Myc-Mef2c (natural protein)
chain: not shown
